# Measured values: PMC11229354, “PRMT5-mediated arginine methylation of FXR1 is essential for RNA binding in cancer cells”
# Legend:
# Experiment in all cases: EMSA; 150 mM KCl, 1 mM Mg2+; EMSA: 50 mM Tris-HCl pH 7.4, 1 mM MgCl2, 0.1 mM EDTA, 150 mM KCl (or LiCl, printed LiCl2), 1 mM DTT, 1 U/ul RNase inhibitor, 100 ug/ml BSA, ~25 C, 20 min; 0.5 pmol RNA in 10 ul
# Conditions in all cases: protein: recombinant; tags: N-terminal GST (pGEX-6P-1); label: 5' 32P or 5' ATTO 550; intramolecular G4 (plausible structure)
# [1] = molecular target: GST-FXR1 S382-P476 WT (human, UniProt P51114 382-476)
# GST-FXR1 S382-P476 WT, sequence (P51114 382-476): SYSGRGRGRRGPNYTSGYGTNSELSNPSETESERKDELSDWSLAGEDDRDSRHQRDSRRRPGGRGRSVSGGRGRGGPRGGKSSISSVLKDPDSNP
# [2] = molecular target: GST-FXR1 S382-P476 R386-459K (human, UniProt P51114 382-476, R386K;R388K;R453K;R455K;R459K)
# GST-FXR1 S382-P476 R386-459K, sequence (P51114 382-476 R386K/R388K/R453K/R455K/R459K): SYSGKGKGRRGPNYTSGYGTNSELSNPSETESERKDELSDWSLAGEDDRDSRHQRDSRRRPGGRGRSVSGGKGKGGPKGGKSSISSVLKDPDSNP
# [3] = molecular target: GST-FXR1 S382-P476 R386K (human, UniProt P51114 382-476, R386K)
# GST-FXR1 S382-P476 R386K, sequence (P51114 382-476 R386K): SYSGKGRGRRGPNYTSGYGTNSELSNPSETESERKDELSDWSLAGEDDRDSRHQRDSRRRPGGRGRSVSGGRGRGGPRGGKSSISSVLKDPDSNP
binder,measurement,setting,value
GGGGGUGAGGGUCCCAUGUGGUGGCACAGG (structured_RNA) [30-mer p21 3'UTR G4-RNA (seg1)],Kd,[1],25 nM
same,binding result,[2],no binding
same,binding result,[3],no binding
